Values of other authors in US20240082365A1, “MULTIDISCIPLINARY TREATMENT OF CHRONIC DISEASE USING REGENERATIVE CELLS AND TECHNOLOGIES” (priority 2022, published 2024).

Key:
[1] = system: metastatic renal cell carcinoma (RCC) and metastatic melanoma; conditions: high-dose, e.g. IV bolus 600,000 IU/kg every 8 hours for up to 14 doses
[2] = subcutaneous, one-compartment model

aldesleukin
antitumor activity [1]: demonstrated antitumor activity
time at which peak plasma levels are reached (after SC administration): 2 to 6 h
absorption half-life [2]: 0.75 h
elimination half-life [2]: 3 to 5 h
